Target: 14-3-3γ (UniProt P61982)
Experiment: anti-Flag co-IP, anti-HA blot
Conditions: reference: wild-type HA-TMCC3-D1; sites S15

TMCC3 TMCC3-D1, 1-210 (from UniProt Q8R310) HA-TMCC3-D1-S15A
binding against the reference: weaker

Source: article PMC9860497
